Data on six molecules can be found in patent publication US20220074941A1, “HSP90 COMBINATION THERAPY” (Sloan-Kettering Institute for Cancer Research, priority 2011, published 2022).

Assay [1] relates to Hsp90 complexes in K562 cell extract. The assay is described as follows: Nano-LC-MS/MS of PU-beads pull-downs. It counts as binding. Particulars: protein identified in PU-beads pull-down of K562 cell extract, QSTAR-Elite QTof MS. In outline:
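Lysates pre-cleared overnight at 4 °C with control beads, then pulled down with PU-beads or control beads; eluted proteins (2% SDS boil) gel-separated and analysed by nano LC-MS/MS on a QTof. Mascot identification (p<0.05), spectral counts and sequence coverage evaluated in Scaffold.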

For assay [2], the system named is Hsp90 complexes in Mia-PaCa-2 cell extract. In words: Nano-LC-MS/MS of PU-beads pull-downs. The conditions noted are these: protein identified in PU-beads pull-down of Mia-PaCa-2 cell extract; QSTAR-Elite QTof MS. It counts as binding, human. In outline:
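Lysates pre-cleared overnight at 4 °C with control beads underwent PU-bead pull-down; bound proteins were SDS-eluted, gel-separated, digested and analyzed by nano-LC-MS/MS on a QTof. Identifications used significance p<0.05, 0.4 Da tolerances and one missed cleavage; unique peptide (spectral) counts and sequence coverage were reported.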

B1: PRPF3 (protein, UniProt O43395 1-683, looked up)
U4/U6 small nuclear …: MALSKRELDELKPWIEKTVKRVLGFSEPTVVTAALNCVGKGMDKKKAADHLKPFLDDSTLRFVDKLFEAVEEGRSSRHSKSSSDRSRKRELKEVFGDDSEISKESSGVKKRRIPRFEEVEEEPEVIPGPPSESPGMLTKLQIKQMMEAATRQIEERKKQLSFISPPTPQPKTPSSSQPERLPIGNTIQPSQAATFMNDAIEKARKAAELQARIQAQLALKPGLIGNANMVGLANLHAMGIAPPKVELKDQTKPTPLILDEQGRTVDATGKEIELTHRMPTLKANIRAVKREQFKQQLKEKPSEDMESNTFFDPRVSIAPSQRQRRTFKFHDKGKFEKIAQRLRTKAQLEKLQAEISQAARKTGIHTSTRLALIAPKKELKEGDIPEIEWWDSYIIPNGFDLTEENPKREDYFGITNLVEHPAQLNPPVDNDTPVTLGVYLTKKEQKKLRRQTRREAQKELQEKVRLGLMPPPEPKVRISNLMRVLGTEAVQDPTKVEAHVRAQMAKRQKAHEEANAARKLTAEQRKVKKIKKLKEDISQGVHISVYRVRNLSNPAKKFKIEANAGQLYLTGVVVLHKDVNVVVVEGGPKAQKKFKRLMLHRIKWDEQTSNTKGDDDEESDEEAVKKTNKCVLVWEGTAKDRSFGEMKFKQCPTENMAREHFKKHGAEHYWDLALSESVLESTD
Take B1: in assay [1], the “Number of Assigned Spectra, K562 Prep 1” value was 3 and the “Number of Assigned Spectra, K562 Prep 2” value amounted to 0. For the same molecule, in assay [2], the “Number of Assigned Spectra, Mia-Paca 2” value turned out to be 0.

B2: NUP160 (protein, UniProt Q12769 1-1436, looked up)
Nuclear pore complex protein …: MLHLSAAPPAPPPEVTATARPCLCSVGRRGDGGKMAAAGALERSFVELSGAERERPRHFREFTVCSIGTANAVAGAVKYSESAGGFYYVESGKLFSVTRNRFIHWKTSGDTLELMEESLDINLLNNAIRLKFQNCSVLPGGVYVSETQNRVIILMLTNQTVHRLLLPHPSRMYRSELVVDSQMQSIFTDIGKVDFTDPCNYQLIPAVPGISPNSTASTAWLSSDGEALFALPCASGGIFVLKLPPYDIPGMVSVVELKQSSVMQRLLTGWMPTAIRGDQSPSDRPLSLAVHCVEHDAFIFALCQDHKLRMWSYKEQMCLMVADMLEYVPVKKDLRLTAGTGHKLRLAYSPTMGLYLGIYMHAPKRGQFCIFQLVSTESNRYSLDHISSLFTSQETLIDFALTSTDIWALWHDAENQTVVKYINFEHNVAGQWNPVFMQPLPEEEIVIRDDQDPREMYLQSLFTPGQFTNEALCKALQIFCRGTERNLDLSWSELKKEVTLAVENELQGSVTEYEFSQEEFRNLQQEFWCKFYACCLQYQEALSHPLALHLNPHTNMVCLLKKGYLSFLIPSSLVDHLYLLPYENLLTEDETTISDDVDIARDVICLIKCLRLIEESVTVDMSVIMEMSCYNLQSPEKAAEQILEDMITIDVENVMEDICSKLQEIRNPIHAIGLLIREMDYETEVEMEKGFNPAQPLNIRMNLTQLYGSNTAGYIVCRGVHKIASTRFLICRDLLILQQLLMRLGDAVIWGTGQLFQAQQDLLHRTAPLLLSYYLIKWGSECLATDVPLDTLESNLQHLSVLELTDSGALMANRFVSSPQTIVELFFQEVARKHIISHLFSQPKAPLSQTGLNWPEMITAITSYLLQLLWPSNPGCLFLECLMGNCQYVQLQDYIQLLHPWCQVNVGSCRFMLGRCYLVTGEGQKALECFCQAASEVGKEEFLDRLIRSEDGEIVSTPRLQYYDKVLRLLDVIGLPELVIQLATSAITEAGDDWKSQATLRTCIFKHHLDLGHNSQAYEALTQIPDSSRQLDCLRQLVVVLCERSQLQDLVEFPYVNLHNEVVGIIESRARAVDLMTHNYYELLYAFHIYRHNYRKAGTVMFEYGMRLGREVRTLRGLEKQGNCYLAALNCLRLIRPEYAWIVQPVSGAVYDRPGASPKRNHDGECTAAPTNRQIEILELEDLEKECSLARIRLTLAQHDPSAVAVAGSSSAEEMVTLLVQAGLFDTAISLCQTFKLPLTPVFEGLAFKCIKLQFGGEAAQAEAWAWLAANQLSSVITTKESSATDEAWRLLSTYLERYKVQNNLYHHCVINKLLSHGVPLPNWLINSYKKVDAAELLRLYLNYDLLEEAVDLVSEYVDAVLGKGHQYFGIEFPLSATAPMVWLPYSSIDQLLQALGENSANSHNIALSQKILDKLEDYQQKVDKATRDLLYRRTL
Regarding B2, in assay [1], the “Number of Assigned Spectra, K562 Prep 1” value was 13 and the “Number of Assigned Spectra, K562 Prep 2” value is listed as 1. For the same molecule, the “Number of Assigned Spectra, Mia-Paca 2” value in assay [2] is reported as 0.

B3: LRRC40 (protein, UniProt Q9H9A6 1-602, looked up)
Leucine-rich …: MSRLKRIAGQDLRAGFKAGGRDCGTSVPQGLLKAARKSGQLNLSGRNLSEVPQCVWRINVDIPEEANQNLSFGATERWWEQTDLTKLIISNNKLQSLTDDLRLLPALTVLDIHDNQLTSLPSAIRELENLQKLNVSHNKLKILPEEITNLRNLKCLYLQHNELTCISEGFEQLSNLEDLDLSNNHLTTVPASFSSLSSLVRLNLSSNELKSLPAEINRMKRLKHLDCNSNLLETIPPELAGMESLELLYLRRNKLRFLPEFPSCSLLKELHVGENQIEMLEAEHLKHLNSILVLDLRDNKLKSVPDEIILLRSLERLDLSNNDISSLPYSLGNLHLKFLALEGNPLRTIRREIISKGTQEVLKYLRSKIKDDGPSQSESATETAMTLPSESRVNIHAIITLKILDYSDKQATLIPDEVFDAVKSNIVTSINFSKNQLCEIPKRMVELKEMVSDVDLSFNKLSFISLELCVLQKLTFLDLRNNFLNSLPEEMESLVRLQTINLSFNRFKMLPEVLYRIFTLETILISNNQVGSVDPQKMKMMENLTTLDLQNNDLLQIPPELGNCVNLRTLLLDGNPFRVPRAAILMKGTAAILEYLRDRIPT
As to B3, in assay [1], the “Number of Assigned Spectra, K562 Prep 1” value was determined as 4 and the “Number of Assigned Spectra, K562 Prep 2” value was 3. Moreover, the “Number of Assigned Spectra, Mia-Paca 2” value in assay [2] came to 0.

B4: NUP85 (protein, UniProt Q9BW27 1-656, looked up)
Nuclear pore complex protein …: MEELDGEPTVTLIPGVNSKKNQMYFDWGPGEMLVCETSFNKKEKSEMVPSCPFIYIIRKDVDVYSQILRKLFNESHGIFLGLQRIDEELTGKSRKSQLVRVSKNYRSVIRACMEEMHQVAIAAKDPANGRQFSSQVSILSAMELIWNLCEILFIEVAPAGPLLLHLLDWVRLHVCEVDSLSADVLGSENPSKHDSFWNLVTILVLQGRLDEARQMLSKEADASPASAGICRIMGDLMRTMPILSPGNTQTLTELELKWQHWHEECERYLQDSTFATSPHLESLLKIMLGDEAALLEQKELLSNWYHFLVTRLLYSNPTVKPIDLHYYAQSSLDLFLGGESSPEPLDNILLAAFEFDIHQVIKECSIALSNWWFVAHLTDLLDHCKLLQSHNLYFGSNMREFLLLEYASGLFAHPSLWQLGVDYFDYCPELGRVSLELHIERIPLNTEQKALKVLRICEQRQMTEQVRSICKILAMKAVRNNRLGSALSWSIRAKDAAFATLVSDRFLRDYCERGCFSDLDLIDNLGPAMMLSDRLTFLGKYREFHRMYGEKRFADAASLLLSLMTSRIAPRSFWMTLLTDALPLLEQKQVIFSAEQTYELMRCLEDLTSRRPVHGESDTEQLQDDDIETTKVEMLRLSLARNLARAIIREGSLEGS
Take B4: in assay [1], the “Number of Assigned Spectra, K562 Prep 1” value is recorded as 14 and the “Number of Assigned Spectra, K562 Prep 2” value came out at 2. Moreover, the “Number of Assigned Spectra, Mia-Paca 2” value in assay [2] worked out at 0.

B5: PRPF31 (protein, UniProt Q8WWY3 1-499, looked up)
U4/U6 small nuclear …: MSLADELLADLEEAAEEEEGGSYGEEEEEPAIEDVQEETQLDLSGDSVKTIAKLWDSKMFAEIMMKIEEYISKQAKASEVMGPVEAAPEYRVIVDANNLTVEIENELNIIHKFIRDKYSKRFPELESLVPNALDYIRTVKELGNSLDKCKNNENLQQILTNATIMVVSVTASTTQGQQLSEEELERLEEACDMALELNASKHRIYEYVESRMSFIAPNLSIIIGASTAAKIMGVAGGLTNLSKMPACNIMLLGAQRKTLSGFSSTSVLPHTGYIYHSDIVQSLPPDLRRKAARLVAAKCTLAARVDSFHESTEGKVGYELKDEIERKFDKWQEPPPVKQVKPLPAPLDGQRKKRGGRRYRKMKERLGLTEIRKQANRMSFGEIEEDAYQEDLGFSLGHLGKSGSGRVRQTQVNEATKARISKTLQRTLQKQSVVYGGKSTIRDRSSGTASSVAFTPLQGLEIVNPQAAEKKVAEANQKYFSSMAEFLKVKGEKSGLMST
Take B5: in assay [1], the “Number of Assigned Spectra, K562 Prep 1” value came out at 3 and the “Number of Assigned Spectra, K562 Prep 2” value was 2. In addition, the “Number of Assigned Spectra, Mia-Paca 2” value in assay [2] is reported as 0.

B6: NOP14 (protein, UniProt P78316 1-857, looked up)
Nucleolar protein 14: MAKAKKVGARRKASGAPAGARGGPAKANSNPFEVKVNRQKFQILGRKTRHDVGLPGVSRARALRKRTQTLLKEYKERDKSNVFRDKRFGEYNSNMSPEEKMMKRFALEQQRHHEKKSIYNLNEDEELTHYGQSLADIEKHNDIVDSDSDAEDRGTLSAELTAAHFGGGGGLLHKKTQQEGEEREKPKSRKELIEELIAKSKQEKRERQAQREDALELTEKLDQDWKEIQTLLSHKTPKSENRDKKEKPKPDAYDMMVRELGFEMKAQPSNRMKTEAELAKEEQEHLRKLEAERLRRMLGKDEDENVKKPKHMSADDLNDGFVLDKDDRRLLSYKDGKMNVEEDVQEEQSKEASDPESNEEEGDSSGGEDTEESDSPDSHLDLESNVESEEENEKPAKEQRQTPGKGLISGKERAGKATRDELPYTFAAPESYEELRSLLLGRSMEEQLLVVERIQKCNHPSLAEGNKAKLEKLFGFLLEYVGDLATDDPPDLTVIDKLVVHLYHLCQMFPESASDAIKFVLRDAMHEMEEMIETKGRAALPGLDVLIYLKITGLLFPTSDFWHPVVTPALVCLSQLLTKCPILSLQDVVKGLFVCCLFLEYVALSQRFIPELINFLLGILYIATPNKASQGSTLVHPFRALGKNSELLVVSAREDVATWQQSSLSLRWASRLRAPTSTEANHIRLSCLAVGLALLKRCVLMYGSLPSFHAIMGPLQALLTDHLADCSHPQELQELCQSTLTEMESQKQLCRPLTCEKSKPVPLKLFTPRLVKVLEFGRKQGSSKEEQERKRLIHKHKREFKGAVREIRKDNQFLARMQLSEIMERDAERKRKVKQLFNSLATQEGEWKALKRKKFKK
On to B6, for which, in assay [1], the “Number of Assigned Spectra, K562 Prep 1” value came to 9 and the “Number of Assigned Spectra, K562 Prep 2” value came to 2. In addition, in assay [2], the “Number of Assigned Spectra, Mia-Paca 2” value is 0.
